Source: the supplement of paper PMC10065799, “High-throughput profiling of sequence recognition by tyrosine kinases and SH2 domains using bacterial peptide display” (eLife, 2023)

Columns and labels:
AncSZ = assay: phosphorylation enrichment, bacterial display (enrichment ratio); higher = better substrate or ligand; peptides without Tyr show the background
EPHB1 = EPHB1 (UniProt P54762); assay: as above
EPHB2 = EPHB2 (UniProt P29323); assay: as above
FGFR1 = FGFR1 (UniProt P11362); assay: as above
FGFR3 = FGFR3 (UniProt P22607); assay: as above
Fer (mouse) = assay: as above
Fes = Fes (UniProt P07332); assay: as above
Fyn = Fyn (UniProt P06241); assay: as above
Hck = Hck (UniProt P08631); assay: as above
Jak2 = Jak2 (UniProt O60674); assay: as above
MERTK = MERTK (UniProt Q12866); assay: as above
c-Abl (mouse) = assay: as above
c-Src = assay: as above
Grb2 SH2 = Grb2 SH2 (UniProt P62993); assay: SH2 binding enrichment of the phosphorylated peptide, bacterial display (enrichment ratio); higher = better substrate or ligand; peptides without Tyr show the background
SHP2-C SH2 = assay: as above
c-Src SH2 = assay: as above
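For SH2 binding enrichment of the phosphorylated peptide, bacterial display in this document: peptide library displayed on the E. coli surface as eCPX fusions, selected cells deep-sequenced, score is each peptide's frequency after selection divided by its frequency in the input.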
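For phosphorylation enrichment, bacterial display in this document: 11-residue human phosphosite peptides and single-mutation variants displayed on the E. coli surface, counted by deep sequencing, each peptide's frequency after selection divided by its frequency in the unselected input library; frequency after pTyr selection over input frequency; kinase dosed for 20-30% of maximal phosphorylation in three min.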

Sequence of Hck (P08631 whole entry, looked up): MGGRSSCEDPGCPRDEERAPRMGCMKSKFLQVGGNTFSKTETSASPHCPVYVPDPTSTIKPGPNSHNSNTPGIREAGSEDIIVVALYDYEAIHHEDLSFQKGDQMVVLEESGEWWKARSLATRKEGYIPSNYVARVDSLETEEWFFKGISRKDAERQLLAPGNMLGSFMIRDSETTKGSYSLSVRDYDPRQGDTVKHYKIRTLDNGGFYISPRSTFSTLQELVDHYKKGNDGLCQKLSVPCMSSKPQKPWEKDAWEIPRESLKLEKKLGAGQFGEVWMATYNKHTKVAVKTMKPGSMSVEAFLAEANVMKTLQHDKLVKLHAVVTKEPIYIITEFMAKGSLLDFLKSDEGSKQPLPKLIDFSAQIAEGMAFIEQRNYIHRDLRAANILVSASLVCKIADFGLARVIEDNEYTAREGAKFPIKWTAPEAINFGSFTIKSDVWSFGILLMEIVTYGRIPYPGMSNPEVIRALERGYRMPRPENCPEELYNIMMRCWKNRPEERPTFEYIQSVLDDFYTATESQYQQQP
Sequence of FGFR1 (P11362 whole entry, looked up): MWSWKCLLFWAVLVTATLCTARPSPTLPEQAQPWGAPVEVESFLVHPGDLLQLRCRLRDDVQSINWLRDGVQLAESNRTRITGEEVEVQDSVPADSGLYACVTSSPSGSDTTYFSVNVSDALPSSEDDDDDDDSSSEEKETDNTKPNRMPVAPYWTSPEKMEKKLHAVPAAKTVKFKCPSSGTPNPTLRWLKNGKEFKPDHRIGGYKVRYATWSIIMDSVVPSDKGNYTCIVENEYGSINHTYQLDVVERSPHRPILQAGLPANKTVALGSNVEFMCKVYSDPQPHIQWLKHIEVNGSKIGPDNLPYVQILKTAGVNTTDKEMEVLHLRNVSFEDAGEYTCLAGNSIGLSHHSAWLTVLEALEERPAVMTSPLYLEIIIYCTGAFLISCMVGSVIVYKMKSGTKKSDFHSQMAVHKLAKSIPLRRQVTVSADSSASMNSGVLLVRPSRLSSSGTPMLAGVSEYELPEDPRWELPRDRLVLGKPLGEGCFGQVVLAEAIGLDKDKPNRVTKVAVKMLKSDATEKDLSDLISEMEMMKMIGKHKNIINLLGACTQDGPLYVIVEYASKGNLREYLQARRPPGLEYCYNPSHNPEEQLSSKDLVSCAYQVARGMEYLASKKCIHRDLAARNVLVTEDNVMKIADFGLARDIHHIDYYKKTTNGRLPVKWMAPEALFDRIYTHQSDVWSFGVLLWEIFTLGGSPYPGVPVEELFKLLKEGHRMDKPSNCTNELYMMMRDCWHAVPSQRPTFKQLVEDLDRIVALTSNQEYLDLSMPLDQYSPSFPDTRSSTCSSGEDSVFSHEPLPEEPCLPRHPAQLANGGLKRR
Sequence of EPHB2 (P29323 whole entry, looked up): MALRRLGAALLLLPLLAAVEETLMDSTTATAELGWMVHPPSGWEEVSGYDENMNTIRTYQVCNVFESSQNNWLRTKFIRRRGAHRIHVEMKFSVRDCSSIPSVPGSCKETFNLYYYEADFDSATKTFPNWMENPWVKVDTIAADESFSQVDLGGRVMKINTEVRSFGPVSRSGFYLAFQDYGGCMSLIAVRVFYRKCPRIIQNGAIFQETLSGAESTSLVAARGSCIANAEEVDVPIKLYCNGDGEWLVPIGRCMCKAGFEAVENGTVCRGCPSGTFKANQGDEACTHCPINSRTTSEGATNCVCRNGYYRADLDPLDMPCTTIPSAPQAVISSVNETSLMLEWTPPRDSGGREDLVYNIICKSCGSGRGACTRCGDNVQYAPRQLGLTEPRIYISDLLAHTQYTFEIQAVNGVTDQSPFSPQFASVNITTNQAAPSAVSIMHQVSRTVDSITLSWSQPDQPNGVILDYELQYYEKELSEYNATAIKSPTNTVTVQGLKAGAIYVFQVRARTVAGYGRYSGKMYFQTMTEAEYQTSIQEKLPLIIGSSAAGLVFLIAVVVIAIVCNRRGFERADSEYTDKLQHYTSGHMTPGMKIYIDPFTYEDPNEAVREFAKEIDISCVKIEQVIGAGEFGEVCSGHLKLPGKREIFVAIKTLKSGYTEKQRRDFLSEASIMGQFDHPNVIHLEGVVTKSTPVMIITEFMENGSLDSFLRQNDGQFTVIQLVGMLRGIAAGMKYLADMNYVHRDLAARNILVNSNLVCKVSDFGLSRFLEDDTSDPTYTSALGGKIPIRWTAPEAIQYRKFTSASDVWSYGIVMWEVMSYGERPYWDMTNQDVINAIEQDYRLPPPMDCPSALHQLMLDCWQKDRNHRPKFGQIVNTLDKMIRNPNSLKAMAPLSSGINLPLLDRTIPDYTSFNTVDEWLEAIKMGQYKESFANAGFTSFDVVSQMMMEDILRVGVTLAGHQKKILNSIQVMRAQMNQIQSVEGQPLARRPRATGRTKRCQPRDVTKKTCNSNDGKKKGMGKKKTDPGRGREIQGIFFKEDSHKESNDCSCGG
Sequence of Fes (P07332 whole entry, looked up): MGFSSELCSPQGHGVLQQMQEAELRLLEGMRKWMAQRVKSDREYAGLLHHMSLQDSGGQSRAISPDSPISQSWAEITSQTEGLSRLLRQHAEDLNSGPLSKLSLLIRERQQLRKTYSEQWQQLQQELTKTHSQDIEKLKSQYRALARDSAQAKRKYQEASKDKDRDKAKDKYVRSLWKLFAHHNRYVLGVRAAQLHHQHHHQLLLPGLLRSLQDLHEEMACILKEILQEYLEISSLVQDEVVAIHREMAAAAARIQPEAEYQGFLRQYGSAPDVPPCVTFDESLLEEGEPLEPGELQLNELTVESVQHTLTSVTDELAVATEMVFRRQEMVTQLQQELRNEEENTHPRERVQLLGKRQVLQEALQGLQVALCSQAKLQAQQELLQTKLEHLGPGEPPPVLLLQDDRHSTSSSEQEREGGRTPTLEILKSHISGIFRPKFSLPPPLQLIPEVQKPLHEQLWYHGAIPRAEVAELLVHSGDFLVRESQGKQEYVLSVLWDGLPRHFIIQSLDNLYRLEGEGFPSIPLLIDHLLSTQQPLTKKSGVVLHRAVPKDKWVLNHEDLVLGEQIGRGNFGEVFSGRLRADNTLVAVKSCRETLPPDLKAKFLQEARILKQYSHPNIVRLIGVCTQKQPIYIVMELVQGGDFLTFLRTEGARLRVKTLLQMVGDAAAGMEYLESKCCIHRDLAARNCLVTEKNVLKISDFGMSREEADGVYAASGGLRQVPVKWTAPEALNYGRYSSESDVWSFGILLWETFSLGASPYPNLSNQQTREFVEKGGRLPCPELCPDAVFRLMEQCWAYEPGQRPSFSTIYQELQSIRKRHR
Sequence of EPHB1 (P54762 whole entry, looked up): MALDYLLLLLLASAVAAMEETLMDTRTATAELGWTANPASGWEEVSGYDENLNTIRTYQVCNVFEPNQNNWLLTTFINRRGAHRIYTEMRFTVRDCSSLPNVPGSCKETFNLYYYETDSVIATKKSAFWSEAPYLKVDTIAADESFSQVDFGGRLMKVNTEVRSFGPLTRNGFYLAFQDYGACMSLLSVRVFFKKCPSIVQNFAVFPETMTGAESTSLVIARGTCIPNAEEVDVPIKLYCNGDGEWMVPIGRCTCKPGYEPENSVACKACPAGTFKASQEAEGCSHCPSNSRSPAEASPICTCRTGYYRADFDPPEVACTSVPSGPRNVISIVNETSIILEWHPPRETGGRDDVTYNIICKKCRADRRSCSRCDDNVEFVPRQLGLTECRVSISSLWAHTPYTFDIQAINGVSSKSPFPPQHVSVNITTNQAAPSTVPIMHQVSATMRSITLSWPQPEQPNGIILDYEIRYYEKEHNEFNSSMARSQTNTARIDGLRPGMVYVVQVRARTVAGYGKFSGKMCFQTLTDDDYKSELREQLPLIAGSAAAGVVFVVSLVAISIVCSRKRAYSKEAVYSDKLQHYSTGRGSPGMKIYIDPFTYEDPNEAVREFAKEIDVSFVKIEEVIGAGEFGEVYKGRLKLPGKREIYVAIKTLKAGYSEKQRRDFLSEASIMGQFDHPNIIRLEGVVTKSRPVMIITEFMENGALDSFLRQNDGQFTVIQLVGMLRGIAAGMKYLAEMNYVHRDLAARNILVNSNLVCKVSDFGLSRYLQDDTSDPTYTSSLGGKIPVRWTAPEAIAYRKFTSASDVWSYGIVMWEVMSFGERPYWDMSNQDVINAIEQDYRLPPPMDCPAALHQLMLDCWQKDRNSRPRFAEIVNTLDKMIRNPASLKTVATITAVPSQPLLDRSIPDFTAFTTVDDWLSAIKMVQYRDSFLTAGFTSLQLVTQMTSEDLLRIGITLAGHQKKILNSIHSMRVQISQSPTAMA
Sequence of FGFR3 (P22607 whole entry, looked up): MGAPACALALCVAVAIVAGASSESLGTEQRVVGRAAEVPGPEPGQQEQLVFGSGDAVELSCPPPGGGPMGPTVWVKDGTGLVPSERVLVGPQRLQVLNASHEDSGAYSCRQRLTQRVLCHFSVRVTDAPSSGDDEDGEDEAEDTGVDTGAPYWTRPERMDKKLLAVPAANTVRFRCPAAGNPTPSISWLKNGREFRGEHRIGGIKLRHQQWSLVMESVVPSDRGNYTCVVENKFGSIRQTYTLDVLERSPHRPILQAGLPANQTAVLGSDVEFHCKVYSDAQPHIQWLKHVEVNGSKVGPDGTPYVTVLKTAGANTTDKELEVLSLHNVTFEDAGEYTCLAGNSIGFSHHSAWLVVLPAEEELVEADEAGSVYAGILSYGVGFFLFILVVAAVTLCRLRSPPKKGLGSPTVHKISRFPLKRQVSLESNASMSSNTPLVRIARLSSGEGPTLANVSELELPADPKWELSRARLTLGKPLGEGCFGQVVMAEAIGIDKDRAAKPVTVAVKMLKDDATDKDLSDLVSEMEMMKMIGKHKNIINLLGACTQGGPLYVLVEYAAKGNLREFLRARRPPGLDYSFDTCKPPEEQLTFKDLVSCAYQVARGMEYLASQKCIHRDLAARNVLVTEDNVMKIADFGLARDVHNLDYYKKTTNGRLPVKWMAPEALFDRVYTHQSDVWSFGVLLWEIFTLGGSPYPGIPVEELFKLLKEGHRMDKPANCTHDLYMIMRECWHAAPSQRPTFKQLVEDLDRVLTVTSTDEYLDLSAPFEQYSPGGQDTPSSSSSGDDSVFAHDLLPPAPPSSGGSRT

SH2 binding enrichment (Grb2 SH2) | SH2 binding enrichment (SHP2-C SH2) | SH2 binding enrichment (c-Src SH2) | Sequence | phosphorylation enrichment (AncSZ) | phosphorylation enrichment (EPHB1) | phosphorylation enrichment (EPHB2) | phosphorylation enrichment (FGFR1) | phosphorylation enrichment (FGFR3) | phosphorylation enrichment (Fer (mouse)) | phosphorylation enrichment (Fes) | phosphorylation enrichment (Fyn) | phosphorylation enrichment (Hck) | phosphorylation enrichment (Jak2) | phosphorylation enrichment (MERTK) | phosphorylation enrichment (c-Abl (mouse)) | phosphorylation enrichment (c-Src)
0.804 | 0.463 | 0.506 | TFEFKYPEGSS [TGM4_Y440_YF] | 1.02 | 0.437 | 0.583 | 0.518 | 0.827 | 0.512 | 1.18 | 0.55 | 0.617 | 0.765 | 0.497 | 0.734 | 0.499
1.76 | 1.75 | 1.53 | KMKGDYYRYLA [YWHAG_Y130] | 0.647 | 1.45 | 1.36 | 8.74 | 5.52 | 0.393 | 0.747 | 0.594 | 0.816 | 2.55 | 2.1 | 0.705 | 0.73
0.894 | 0.883 | 0.553 | CTTIHYFFMCN [TP53_Y234_N235Y_YF] | 0.966 | 0.515 | 0.534 | 0.413 | 0.635 | 0.384 | 0.982 | 0.424 | 0.37 | 1.07 | 0.309 | 0.662 | 0.279
0.833 | 0.538 | 0.808 | REIIAYQPYGK [PRKCG_Y529_P524R] | 0.83 | 0.429 | 0.617 | 0.329 | 0.415 | 0.357 | 0.721 | 0.625 | 0.563 | 0.531 | 0.294 | 0.467 | 0.405
1.02 | 1.02 | 0.872 | PFRFIYMAVQH [PTPN11_Y515_Q510P_YF] | 1.09 | 0.741 | 0.737 | 0.463 | 0.726 | 0.563 | 1.01 | 0.732 | 1.11 | 1.18 | 0.527 | 1.27 | 1.26
0.964 | 0.678 | 0.563 | ELAVNYQEQAS [SLC9A9_Y591_I589V] | 0.96 | 0.563 | 0.694 | 0.605 | 0.883 | 0.519 | 1.06 | 0.534 | 0.559 | 0.829 | 0.435 | 0.66 | 0.496
0.892 | 0.502 | 0.816 | QNTVDYYDLYG [PTPN11_Y62_G60V] | 2.72 | 4.44 | 3.38 | 18.4 | 15.4 | 1.1 | 1.66 | 6.01 | 6.03 | 2.63 | 1.33 | 1.38 | 5.35
0.798 | 0.733 | 0.403 | ACEVLYNIVFM [NCF2_Y125_A128V] | 2.4 | 1.17 | 1.16 | 1.8 | 2.03 | 8.66 | 1.93 | 1.55 | 2.95 | 1.59 | 3.19 | 1.84 | 2.18
1.02 | 0.909 | 0.725 | LHNLFYQLEAE [PKP2_Y616_S615F] | 2.35 | 1.35 | 1.9 | 1.02 | 1.07 | 1.66 | 2.87 | 8.59 | 2.2 | 2.4 | 1.6 | 2.03 | 10.4

Second part, the sequence before the results:

Sequence | SH2 binding enrichment (Grb2 SH2) | SH2 binding enrichment (SHP2-C SH2) | SH2 binding enrichment (c-Src SH2) | phosphorylation enrichment (AncSZ) | phosphorylation enrichment (EPHB1) | phosphorylation enrichment (EPHB2) | phosphorylation enrichment (FGFR1) | phosphorylation enrichment (FGFR3) | phosphorylation enrichment (Fer (mouse)) | phosphorylation enrichment (Fes) | phosphorylation enrichment (Fyn) | phosphorylation enrichment (Hck) | phosphorylation enrichment (Jak2) | phosphorylation enrichment (MERTK) | phosphorylation enrichment (c-Abl (mouse)) | phosphorylation enrichment (c-Src)
RFLRGYRQDAY [HLA-A_Y137] | 1.1 | 0.556 | 0.628 | 1.15 | 0.43 | 0.432 | 0.677 | 0.664 | 0.483 | 0.827 | 0.647 | 0.764 | 0.927 | 1.2 | 0.922 | 1.14
AEVDTYCRHNF [HLA-DRB1_Y107_A103E_YF] | 0.826 | 0.696 | 0.454 | 0.988 | 0.594 | 0.556 | 0.532 | 0.61 | 0.813 | 0.935 | 0.567 | 0.6 | 0.719 | 0.473 | 0.618 | 0.509
LDLPGYCPLRE [CCDC116_Y291] | 0.754 | 0.736 | 0.611 | 1.55 | 1.09 | 0.668 | 0.916 | 1.36 | 1.09 | 1.97 | 0.96 | 1.1 | 1.64 | 0.767 | 1.28 | 0.773
LFIGQYSGKKE [L1CAM_Y1229_S1224L] | 0.924 | 0.745 | 0.843 | 1.41 | 0.984 | 1.11 | 1.02 | 1.13 | 0.901 | 2.22 | 1.07 | 1.02 | 1.77 | 0.972 | 1.07 | 1.12
SETSRYLSDLF [KCNJ3_Y67] | 0.942 | 0.989 | 0.543 | 0.963 | 0.726 | 0.562 | 0.544 | 0.627 | 0.555 | 1.21 | 0.504 | 0.515 | 1.17 | 0.485 | 0.844 | 0.549
HQIQSYTCEID [DES_Y331] | 0.951 | 0.786 | 0.774 | 0.927 | 0.7 | 0.802 | 0.822 | 0.882 | 0.349 | 1.27 | 0.628 | 0.675 | 1.44 | 0.595 | 0.767 | 0.502
DGYIDYAEFAK [MCFD2_Y138] | 0.733 | 0.47 | 0.661 | 1.13 | 0.639 | 0.579 | 1.31 | 1 | 0.407 | 1 | 0.635 | 0.657 | 0.917 | 0.455 | 0.674 | 0.912
